These results are taken from PMC6196983, “The Native Monomer of Bacillus Pumilus Ribonuclease Does Not Exist Extracellularly” (BioMed Research International, 2018).

This data set deals with the molecule itself. The data set is described as follows: NMR self-diffusion (hydrodynamic radius); 1.5 mg/ml binase in D2O at pH 3.0 and pH 6.4; BPP-LED stimulated echo, 600.13 MHz; radius from the Stokes-Einstein equation compared with the theoretical monomer size of 1.6 nm.

B1: binase, secreted guanyl-preferring ribonuclease of Bacillus pumilus (enzyme, UniProt P00649 54-162, looked up)
chain: AVINTFDGVADYLIRYKRLPDNYITKSQASALGWVASKGNLAEVAPGKSIGGDVFSNREGRLPSASGRTWREADINYVSGFRNADRLVYSSDWLIYKTTDHYATFTRIR
notes: binase, secreted ribonuclease of Bacillus pumilus (formerly Bacillus intermedius); also called B. pumilus secreted RNase; Bacillus intermedius RNase; source: isolated from B. pumilus culture fluid, purified
On to B1, for which the “stoichiometry N” value stood at 2.

A word on the stoichiometry N: it is a count of units in the complex or per binding partner.
